Assay results taken from US20140128287, “SYSTEMS FOR INDUCTION OF GENE EXPRESSION AND PROTEIN DEPLETION IN YEAST” (THE TRUSTEES OF PRINCETON UNIVERSITY, published 2014).

B1: Zif in vivo target (three pairs of sites) (dsDNA)
DNA 1: GCGTGGGCGTGCGTGGGCGGGCGTGGGCGTGCGTGGGCGGGCGTGGGCGTGCGTGGGCG
DNA 2: CGCCCACGCACGCCCACGCCCGCCCACGCACGCCCACGCCCGCCCACGCACGCCCACGC
B2: 4Z in vivo target (three pairs of sites) (dsDNA)
DNA 1: GCGGCGGAGGAGTGCGGCGGAGGAGGAGCGGCGGAGGAGTGCGGCGGAGGAGGAGCGGCGGAGGAGTGCGGCGGAGGAG
DNA 2: CTCCTCCGCCGCACTCCTCCGCCGCTCCTCCTCCGCCGCACTCCTCCGCCGCTCCTCCTCCGCCGCACTCCTCCGCCGC

How the values were obtained:
[1] = molecular target: ZEV (Zif268 zinc fingers - estrogen receptor - VP16 activator) (synthetic construct, UniProt P18146 SEQ:1-87); assay: cell_activity; yeast reporter, modified GAL1 promoter, 15 min after beta-estradiol
[2] = molecular target: 4ZEV (designed four zinc finger - estrogen receptor - VP16 activator) (synthetic construct); assay: as above; conditions: tags: 4Z DBD replaces Gal4 DBD of GEV

Binder | activity [1] | activity [2]
B1 | > 50 fold induction of GFP transcripts | 
B2 |  | > 50 fold induction of GFP transcripts
